Measured values taken from PMC9482650, “Quantitative fragmentomics allow affinity mapping of interactomes” (Nature Communications, 2022).

T1: MPP7, Q5T2T1
T1 sequence (Q5T2T1 134-230, limits assumed, looked up): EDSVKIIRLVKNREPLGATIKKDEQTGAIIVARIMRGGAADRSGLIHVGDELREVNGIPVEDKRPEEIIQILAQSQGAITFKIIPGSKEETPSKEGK

T2: RHPN1, Q8TCX5
T2 sequence (Q8TCX5 508-602, limits assumed, looked up): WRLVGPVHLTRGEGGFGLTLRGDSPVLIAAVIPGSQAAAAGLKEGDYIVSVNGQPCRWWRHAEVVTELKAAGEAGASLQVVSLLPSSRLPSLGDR

T3: MPDZ_10, O75970
T3 sequence (O75970 1624-1722, limits assumed, looked up): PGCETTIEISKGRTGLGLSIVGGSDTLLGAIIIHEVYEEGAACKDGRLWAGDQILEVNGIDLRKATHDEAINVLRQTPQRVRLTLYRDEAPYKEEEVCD

T4: DFNB31_2, Q9P202
T4 sequence (Q9P202 274-371, limits assumed, looked up): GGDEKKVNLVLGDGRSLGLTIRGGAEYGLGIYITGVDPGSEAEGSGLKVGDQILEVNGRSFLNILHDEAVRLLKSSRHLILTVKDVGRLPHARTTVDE

T5: SNTB1, Q13884
T5 sequence (Q13884 107-205, limits assumed, looked up): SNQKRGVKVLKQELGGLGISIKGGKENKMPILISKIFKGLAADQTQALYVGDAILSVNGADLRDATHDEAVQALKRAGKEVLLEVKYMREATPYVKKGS

T6: PDZRN3_1, Q9UPQ7
T6 sequence (Q9UPQ7 244-349, limits assumed, looked up): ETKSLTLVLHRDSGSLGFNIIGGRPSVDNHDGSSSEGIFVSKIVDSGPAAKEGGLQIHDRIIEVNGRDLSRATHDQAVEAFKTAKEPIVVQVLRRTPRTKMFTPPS

T7: HTRA3, P83110
T7 sequence (P83110 354-453, limits assumed, looked up): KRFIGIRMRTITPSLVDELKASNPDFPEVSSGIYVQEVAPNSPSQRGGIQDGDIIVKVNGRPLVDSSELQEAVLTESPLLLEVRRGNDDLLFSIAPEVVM

T8: FRMPD1, Q5SYB0
T8 sequence (Q5SYB0 52-145, limits assumed, looked up): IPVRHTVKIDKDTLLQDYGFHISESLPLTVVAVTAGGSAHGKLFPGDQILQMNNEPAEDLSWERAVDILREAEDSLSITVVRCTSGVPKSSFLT

T9: ARHGAP21, Q5T5U3
T9 sequence (Q5T5U3 45-169, limits assumed, looked up): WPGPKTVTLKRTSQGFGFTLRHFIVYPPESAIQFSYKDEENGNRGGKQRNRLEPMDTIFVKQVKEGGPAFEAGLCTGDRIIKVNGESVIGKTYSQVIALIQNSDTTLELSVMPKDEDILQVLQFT

T10: MPDZ_5, O75970
T10 sequence (O75970 695-796, limits assumed, looked up): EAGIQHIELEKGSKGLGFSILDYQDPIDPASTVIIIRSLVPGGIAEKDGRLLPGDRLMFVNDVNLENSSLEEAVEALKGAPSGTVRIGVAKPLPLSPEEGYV

T11: LRRC7, Q96NW7
T11 sequence (Q96NW7 1440-1537, limits assumed, looked up): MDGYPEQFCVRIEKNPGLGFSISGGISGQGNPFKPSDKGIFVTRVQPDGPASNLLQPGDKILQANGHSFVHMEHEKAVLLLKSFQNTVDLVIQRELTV


Target: Inadl_1, Q8NI35
Assay: holdup assay
Parameters: key: below the threshold = too weak to quantify, mostly under pKd 3.1 to 4
Conditions: plain residues with an end cap or a label only (N-terminal biotin on a linker: ado-ado)

Sequence of Inadl_1, Q8NI35 (Q8NI35 113-229): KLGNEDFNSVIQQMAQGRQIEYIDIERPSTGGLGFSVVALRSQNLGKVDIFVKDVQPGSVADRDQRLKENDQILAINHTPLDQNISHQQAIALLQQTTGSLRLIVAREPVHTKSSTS

Row | Binder | pKd
1 | TKDKVQETQI [LRRC4, Q9HBW1] | below the threshold

Target: GORASP2, Q9H8Y8
Assay: holdup assay
Parameters: key: below the threshold = too weak to quantify, mostly under pKd 3.1 to 4
Conditions: plain residues with an end cap or a label only (N-terminal biotin on a linker: ado-ado)

Row | Binder | pKd
2 | TKDKVQETQI [LRRC4, Q9HBW1] | 3.57

Target: DLG2_3, Q15700
Assay: holdup assay
Parameters: key: below the threshold = too weak to quantify, mostly under pKd 3.1 to 4
Conditions: plain residues with an end cap or a label only (N-terminal biotin on a linker: ado-ado)

Row | Binder | pKd
3 | TKDKVQETQI [LRRC4, Q9HBW1] | 4.16

Target: T1, MPP7, Q5T2T1
Assay: holdup assay
Parameters: key: below the threshold = too weak to quantify, mostly under pKd 3.1 to 4
Conditions: plain residues with an end cap or a label only (N-terminal biotin on a linker: ado-ado)

Row | Binder | pKd
4 | TKDKVQETQI [LRRC4, Q9HBW1] | below the threshold

Target: T2, RHPN1, Q8TCX5
Assay: holdup assay
Parameters: key: below the threshold = too weak to quantify, mostly under pKd 3.1 to 4
Conditions: plain residues with an end cap or a label only (N-terminal biotin on a linker: ado-ado)

Row | Binder | pKd
5 | TKDKVQETQI [LRRC4, Q9HBW1] | 4.84

Target: T3, MPDZ_10, O75970
Assay: holdup assay
Parameters: key: below the threshold = too weak to quantify, mostly under pKd 3.1 to 4
Conditions: plain residues with an end cap or a label only (N-terminal biotin on a linker: ado-ado)

Row | Binder | pKd
6 | TKDKVQETQI [LRRC4, Q9HBW1] | below the threshold

Target: NHERF4_1, Q86UT5-2
Assay: holdup assay
Parameters: key: below the threshold = too weak to quantify, mostly under pKd 3.1 to 4
Conditions: plain residues with an end cap or a label only (N-terminal biotin on a linker: ado-ado)

Sequence of NHERF4_1, Q86UT5-2 (Q86UT5 other isoform, or with tags, fused parts or gaps): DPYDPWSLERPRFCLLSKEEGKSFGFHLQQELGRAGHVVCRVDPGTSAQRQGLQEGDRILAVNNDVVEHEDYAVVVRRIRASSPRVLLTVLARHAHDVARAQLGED

Row | Binder | pKd
7 | TKDKVQETQI [LRRC4, Q9HBW1] | below the threshold

Target: SCRIB_3, Q14160
Assay: holdup assay
Parameters: key: below the threshold = too weak to quantify, mostly under pKd 3.1 to 4
Conditions: plain residues with an end cap or a label only (N-terminal biotin on a linker: ado-ado)

Sequence of SCRIB_3, Q14160 (Q14160 999-1103): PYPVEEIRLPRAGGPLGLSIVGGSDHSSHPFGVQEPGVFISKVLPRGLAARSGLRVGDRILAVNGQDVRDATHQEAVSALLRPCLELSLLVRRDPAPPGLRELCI

Row | Binder | pKd
8 | TKDKVQETQI [LRRC4, Q9HBW1] | 5

Target: NHERF4_4, Q86UT5
Assay: holdup assay
Parameters: key: below the threshold = too weak to quantify, mostly under pKd 3.1 to 4
Conditions: plain residues with an end cap or a label only (N-terminal biotin on a linker: ado-ado)

Sequence of NHERF4_4, Q86UT5 (Q86UT5 464-550): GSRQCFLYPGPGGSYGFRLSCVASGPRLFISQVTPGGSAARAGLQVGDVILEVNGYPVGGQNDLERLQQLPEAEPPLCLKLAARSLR

Row | Binder | pKd
9 | TKDKVQETQI [LRRC4, Q9HBW1] | 3.95

Target: T4, DFNB31_2, Q9P202
Assay: holdup assay
Parameters: key: below the threshold = too weak to quantify, mostly under pKd 3.1 to 4
Conditions: plain residues with an end cap or a label only (N-terminal biotin on a linker: ado-ado)

Row | Binder | pKd
10 | TKDKVQETQI [LRRC4, Q9HBW1] | 3.71

Target: GRIP2_6, Q9C0E4
Assay: holdup assay
Parameters: key: below the threshold = too weak to quantify, mostly under pKd 3.1 to 4
Conditions: plain residues with an end cap or a label only (N-terminal biotin on a linker: ado-ado)

Sequence of GRIP2_6, Q9C0E4 (Q9C0E4 648-740): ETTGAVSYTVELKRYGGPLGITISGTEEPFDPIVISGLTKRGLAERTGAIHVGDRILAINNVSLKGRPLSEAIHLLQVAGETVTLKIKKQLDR

Row | Binder | pKd
11 | TKDKVQETQI [LRRC4, Q9HBW1] | below the threshold

Target: PDLIM1, O00151
Assay: holdup assay
Parameters: key: below the threshold = too weak to quantify, mostly under pKd 3.1 to 4
Conditions: plain residues with an end cap or a label only (N-terminal biotin on a linker: ado-ado)

Sequence of PDLIM1, O00151 (O00151 1-87): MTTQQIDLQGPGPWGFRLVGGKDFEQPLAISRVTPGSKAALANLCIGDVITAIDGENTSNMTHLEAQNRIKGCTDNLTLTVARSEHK

Row | Binder | pKd
12 | TKDKVQETQI [LRRC4, Q9HBW1] | below the threshold

Target: T5, SNTB1, Q13884
Assay: holdup assay
Parameters: key: below the threshold = too weak to quantify, mostly under pKd 3.1 to 4
Conditions: plain residues with an end cap or a label only (N-terminal biotin on a linker: ado-ado)

Row | Binder | pKd
13 | TKDKVQETQI [LRRC4, Q9HBW1] | 5.08

Target: SCRIB_1, Q14160
Assay: holdup assay
Parameters: key: below the threshold = too weak to quantify, mostly under pKd 3.1 to 4
Conditions: plain residues with an end cap or a label only (N-terminal biotin on a linker: ado-ado)

Sequence of SCRIB_1, Q14160 (Q14160 718-814): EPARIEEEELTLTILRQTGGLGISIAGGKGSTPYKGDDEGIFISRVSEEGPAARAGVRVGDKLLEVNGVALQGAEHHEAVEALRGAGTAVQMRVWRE

Row | Binder | pKd
14 | TKDKVQETQI [LRRC4, Q9HBW1] | 5.19

Target: FRMPD2_2, Q68DX3
Assay: holdup assay
Parameters: key: below the threshold = too weak to quantify, mostly under pKd 3.1 to 4
Conditions: plain residues with an end cap or a label only (N-terminal biotin on a linker: ado-ado)

Sequence of FRMPD2_2, Q68DX3 (Q68DX3 944-1038): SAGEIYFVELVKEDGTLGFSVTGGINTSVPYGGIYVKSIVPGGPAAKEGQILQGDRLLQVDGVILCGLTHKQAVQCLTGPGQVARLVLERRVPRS

Row | Binder | pKd
15 | TKDKVQETQI [LRRC4, Q9HBW1] | 3.82

Target: Inadl_4, Q8NI35
Assay: holdup assay
Parameters: key: below the threshold = too weak to quantify, mostly under pKd 3.1 to 4
Conditions: plain residues with an end cap or a label only (N-terminal biotin on a linker: ado-ado)

Sequence of Inadl_4, Q8NI35 (Q8NI35 547-651): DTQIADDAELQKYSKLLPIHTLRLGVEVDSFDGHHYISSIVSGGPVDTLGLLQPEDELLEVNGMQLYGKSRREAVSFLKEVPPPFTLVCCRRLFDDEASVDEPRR

Row | Binder | pKd
16 | TKDKVQETQI [LRRC4, Q9HBW1] | below the threshold

Target: TJP1_2, Q07157
Assay: holdup assay
Parameters: key: below the threshold = too weak to quantify, mostly under pKd 3.1 to 4
Conditions: plain residues with an end cap or a label only (N-terminal biotin on a linker: ado-ado)

Sequence of TJP1_2, Q07157 (Q07157 181-274): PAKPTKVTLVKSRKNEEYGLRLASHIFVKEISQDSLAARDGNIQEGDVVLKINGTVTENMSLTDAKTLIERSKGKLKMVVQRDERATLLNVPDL

Row | Binder | pKd
17 | TKDKVQETQI [LRRC4, Q9HBW1] | 3.64

Target: Inadl_3, Q8NI35
Assay: holdup assay
Parameters: key: below the threshold = too weak to quantify, mostly under pKd 3.1 to 4
Conditions: plain residues with an end cap or a label only (N-terminal biotin on a linker: ado-ado)

Sequence of Inadl_3, Q8NI35 (Q8NI35 359-469): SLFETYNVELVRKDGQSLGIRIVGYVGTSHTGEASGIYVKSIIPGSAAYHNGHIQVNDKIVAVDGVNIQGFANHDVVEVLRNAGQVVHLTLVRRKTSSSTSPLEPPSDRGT

Row | Binder | pKd
18 | TKDKVQETQI [LRRC4, Q9HBW1] | 3.56

Target: T6, PDZRN3_1, Q9UPQ7
Assay: holdup assay
Parameters: key: below the threshold = too weak to quantify, mostly under pKd 3.1 to 4
Conditions: plain residues with an end cap or a label only (N-terminal biotin on a linker: ado-ado)

Row | Binder | pKd
19 | TKDKVQETQI [LRRC4, Q9HBW1] | 4.4

Target: T7, HTRA3, P83110
Assay: holdup assay
Parameters: key: below the threshold = too weak to quantify, mostly under pKd 3.1 to 4
Conditions: plain residues with an end cap or a label only (N-terminal biotin on a linker: ado-ado)

Row | Binder | pKd
20 | TKDKVQETQI [LRRC4, Q9HBW1] | below the threshold

Target: T8, FRMPD1, Q5SYB0
Assay: holdup assay
Parameters: key: below the threshold = too weak to quantify, mostly under pKd 3.1 to 4
Conditions: plain residues with an end cap or a label only (N-terminal biotin on a linker: ado-ado)

Row | Binder | pKd
21 | TKDKVQETQI [LRRC4, Q9HBW1] | below the threshold

Target: IL16_1, Q14005
Assay: holdup assay
Parameters: key: below the threshold = too weak to quantify, mostly under pKd 3.1 to 4
Conditions: plain residues with an end cap or a label only (N-terminal biotin on a linker: ado-ado)

Sequence of IL16_1, Q14005 (Q14005 210-306): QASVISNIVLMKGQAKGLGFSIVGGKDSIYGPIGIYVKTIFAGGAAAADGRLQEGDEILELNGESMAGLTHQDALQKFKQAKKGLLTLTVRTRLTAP

Row | Binder | pKd
22 | TKDKVQETQI [LRRC4, Q9HBW1] | 3.54

Target: GORASP1, Q9BQQ3
Assay: holdup assay
Parameters: key: below the threshold = too weak to quantify, mostly under pKd 3.1 to 4
Conditions: plain residues with an end cap or a label only (N-terminal biotin on a linker: ado-ado)

Sequence of GORASP1, Q9BQQ3 (Q9BQQ3 1-208): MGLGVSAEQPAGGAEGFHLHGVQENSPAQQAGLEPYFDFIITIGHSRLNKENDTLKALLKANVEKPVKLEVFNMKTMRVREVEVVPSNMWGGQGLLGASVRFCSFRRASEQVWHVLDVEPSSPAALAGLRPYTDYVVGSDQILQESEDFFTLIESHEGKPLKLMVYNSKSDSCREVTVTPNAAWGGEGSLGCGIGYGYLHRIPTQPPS

Row | Binder | pKd
23 | TKDKVQETQI [LRRC4, Q9HBW1] | below the threshold

Target: T9, ARHGAP21, Q5T5U3
Assay: holdup assay
Parameters: key: below the threshold = too weak to quantify, mostly under pKd 3.1 to 4
Conditions: plain residues with an end cap or a label only (N-terminal biotin on a linker: ado-ado)

Row | Binder | pKd
24 | TKDKVQETQI [LRRC4, Q9HBW1] | 4.05

Target: T10, MPDZ_5, O75970
Assay: holdup assay
Parameters: key: below the threshold = too weak to quantify, mostly under pKd 3.1 to 4
Conditions: plain residues with an end cap or a label only (N-terminal biotin on a linker: ado-ado)

Row | Binder | pKd
25 | TKDKVQETQI [LRRC4, Q9HBW1] | below the threshold

Target: DLG4_1, P78352
Assay: holdup assay
Parameters: key: below the threshold = too weak to quantify, mostly under pKd 3.1 to 4
Conditions: plain residues with an end cap or a label only (N-terminal biotin on a linker: ado-ado)

Sequence of DLG4_1, P78352 (P78352 62-152): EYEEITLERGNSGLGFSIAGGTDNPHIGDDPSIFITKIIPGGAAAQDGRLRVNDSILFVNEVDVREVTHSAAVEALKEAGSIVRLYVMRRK

Row | Binder | pKd
26 | TKDKVQETQI [LRRC4, Q9HBW1] | 4.44

Target: T11, LRRC7, Q96NW7
Assay: holdup assay
Parameters: key: below the threshold = too weak to quantify, mostly under pKd 3.1 to 4
Conditions: plain residues with an end cap or a label only (N-terminal biotin on a linker: ado-ado)

Row | Binder | pKd
27 | TKDKVQETQI [LRRC4, Q9HBW1] | 3.53
